Common to all, as to assay: cell-based or functional assay
Assay [1] has as its target insulin growth factor I receptor (human) (UniProt P08069).
Assay [2] deals with insulin growth factor II receptor (human) (UniProt P11717).
The target of assay [3] is epidermal growth factor receptor (human) (UniProt P00533).

Sequence of UniProt P11717 (P11717 41-2491): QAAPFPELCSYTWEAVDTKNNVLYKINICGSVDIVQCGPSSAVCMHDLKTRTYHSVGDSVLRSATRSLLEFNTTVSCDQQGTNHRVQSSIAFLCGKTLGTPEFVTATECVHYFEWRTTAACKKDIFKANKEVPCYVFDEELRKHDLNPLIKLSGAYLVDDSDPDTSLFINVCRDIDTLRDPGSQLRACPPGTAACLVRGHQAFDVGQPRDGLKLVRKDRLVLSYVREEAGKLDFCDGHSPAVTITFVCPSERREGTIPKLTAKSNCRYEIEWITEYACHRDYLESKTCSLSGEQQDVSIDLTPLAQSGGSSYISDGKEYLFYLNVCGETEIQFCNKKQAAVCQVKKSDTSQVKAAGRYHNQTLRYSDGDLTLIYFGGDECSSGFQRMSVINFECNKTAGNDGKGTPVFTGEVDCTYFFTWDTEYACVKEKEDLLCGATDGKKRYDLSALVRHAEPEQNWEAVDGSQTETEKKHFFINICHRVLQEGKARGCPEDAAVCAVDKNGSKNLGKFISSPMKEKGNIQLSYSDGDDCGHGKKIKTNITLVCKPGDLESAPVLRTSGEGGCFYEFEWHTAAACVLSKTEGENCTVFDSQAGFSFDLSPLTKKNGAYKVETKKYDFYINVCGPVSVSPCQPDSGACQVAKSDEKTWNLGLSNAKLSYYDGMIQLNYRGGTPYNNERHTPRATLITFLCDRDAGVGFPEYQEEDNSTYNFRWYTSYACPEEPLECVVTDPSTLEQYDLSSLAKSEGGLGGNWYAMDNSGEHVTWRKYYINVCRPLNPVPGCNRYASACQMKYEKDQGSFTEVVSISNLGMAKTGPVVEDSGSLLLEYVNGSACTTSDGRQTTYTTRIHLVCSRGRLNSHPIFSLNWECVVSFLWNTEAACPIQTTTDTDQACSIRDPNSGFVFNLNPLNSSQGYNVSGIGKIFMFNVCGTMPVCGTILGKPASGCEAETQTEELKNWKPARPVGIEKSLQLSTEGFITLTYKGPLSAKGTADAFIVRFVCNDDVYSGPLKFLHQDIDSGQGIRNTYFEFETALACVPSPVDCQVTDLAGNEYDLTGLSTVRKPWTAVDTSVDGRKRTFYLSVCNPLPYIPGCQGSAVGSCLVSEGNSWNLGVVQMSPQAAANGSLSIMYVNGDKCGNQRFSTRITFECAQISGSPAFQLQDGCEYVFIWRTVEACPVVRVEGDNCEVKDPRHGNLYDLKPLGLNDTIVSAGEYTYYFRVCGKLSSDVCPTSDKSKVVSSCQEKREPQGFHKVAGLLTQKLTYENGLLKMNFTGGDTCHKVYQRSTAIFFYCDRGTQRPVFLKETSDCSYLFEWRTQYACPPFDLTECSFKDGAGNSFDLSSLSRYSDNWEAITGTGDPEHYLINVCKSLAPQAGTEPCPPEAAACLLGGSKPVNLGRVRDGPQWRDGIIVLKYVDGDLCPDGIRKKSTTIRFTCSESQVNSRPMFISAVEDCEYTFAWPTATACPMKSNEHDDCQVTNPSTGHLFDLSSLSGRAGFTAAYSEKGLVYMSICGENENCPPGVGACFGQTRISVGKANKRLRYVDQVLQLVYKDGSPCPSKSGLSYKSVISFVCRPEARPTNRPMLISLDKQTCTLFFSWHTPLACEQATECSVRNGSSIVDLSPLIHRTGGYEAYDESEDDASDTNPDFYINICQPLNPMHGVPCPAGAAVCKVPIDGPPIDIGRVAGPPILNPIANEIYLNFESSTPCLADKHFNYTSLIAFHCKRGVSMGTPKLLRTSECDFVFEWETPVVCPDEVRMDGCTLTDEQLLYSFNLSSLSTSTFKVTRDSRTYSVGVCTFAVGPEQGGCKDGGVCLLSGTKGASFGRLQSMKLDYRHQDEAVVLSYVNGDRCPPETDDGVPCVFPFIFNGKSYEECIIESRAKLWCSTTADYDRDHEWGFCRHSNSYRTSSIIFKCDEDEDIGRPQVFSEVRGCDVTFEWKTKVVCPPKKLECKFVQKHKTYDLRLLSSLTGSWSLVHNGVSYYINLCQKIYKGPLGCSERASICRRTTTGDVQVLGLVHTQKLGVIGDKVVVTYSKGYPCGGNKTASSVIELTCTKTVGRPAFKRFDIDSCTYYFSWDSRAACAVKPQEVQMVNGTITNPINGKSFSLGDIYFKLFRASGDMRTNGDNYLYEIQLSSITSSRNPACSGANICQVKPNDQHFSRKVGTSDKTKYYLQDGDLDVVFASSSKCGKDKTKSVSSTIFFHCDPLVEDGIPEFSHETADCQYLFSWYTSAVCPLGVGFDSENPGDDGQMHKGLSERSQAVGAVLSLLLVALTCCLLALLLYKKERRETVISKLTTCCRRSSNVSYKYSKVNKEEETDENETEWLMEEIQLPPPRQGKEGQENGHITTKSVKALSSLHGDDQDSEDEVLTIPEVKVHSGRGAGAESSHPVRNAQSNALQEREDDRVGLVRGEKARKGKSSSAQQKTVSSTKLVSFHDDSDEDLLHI
Sequence of UniProt P08069 (P08069 31-1367): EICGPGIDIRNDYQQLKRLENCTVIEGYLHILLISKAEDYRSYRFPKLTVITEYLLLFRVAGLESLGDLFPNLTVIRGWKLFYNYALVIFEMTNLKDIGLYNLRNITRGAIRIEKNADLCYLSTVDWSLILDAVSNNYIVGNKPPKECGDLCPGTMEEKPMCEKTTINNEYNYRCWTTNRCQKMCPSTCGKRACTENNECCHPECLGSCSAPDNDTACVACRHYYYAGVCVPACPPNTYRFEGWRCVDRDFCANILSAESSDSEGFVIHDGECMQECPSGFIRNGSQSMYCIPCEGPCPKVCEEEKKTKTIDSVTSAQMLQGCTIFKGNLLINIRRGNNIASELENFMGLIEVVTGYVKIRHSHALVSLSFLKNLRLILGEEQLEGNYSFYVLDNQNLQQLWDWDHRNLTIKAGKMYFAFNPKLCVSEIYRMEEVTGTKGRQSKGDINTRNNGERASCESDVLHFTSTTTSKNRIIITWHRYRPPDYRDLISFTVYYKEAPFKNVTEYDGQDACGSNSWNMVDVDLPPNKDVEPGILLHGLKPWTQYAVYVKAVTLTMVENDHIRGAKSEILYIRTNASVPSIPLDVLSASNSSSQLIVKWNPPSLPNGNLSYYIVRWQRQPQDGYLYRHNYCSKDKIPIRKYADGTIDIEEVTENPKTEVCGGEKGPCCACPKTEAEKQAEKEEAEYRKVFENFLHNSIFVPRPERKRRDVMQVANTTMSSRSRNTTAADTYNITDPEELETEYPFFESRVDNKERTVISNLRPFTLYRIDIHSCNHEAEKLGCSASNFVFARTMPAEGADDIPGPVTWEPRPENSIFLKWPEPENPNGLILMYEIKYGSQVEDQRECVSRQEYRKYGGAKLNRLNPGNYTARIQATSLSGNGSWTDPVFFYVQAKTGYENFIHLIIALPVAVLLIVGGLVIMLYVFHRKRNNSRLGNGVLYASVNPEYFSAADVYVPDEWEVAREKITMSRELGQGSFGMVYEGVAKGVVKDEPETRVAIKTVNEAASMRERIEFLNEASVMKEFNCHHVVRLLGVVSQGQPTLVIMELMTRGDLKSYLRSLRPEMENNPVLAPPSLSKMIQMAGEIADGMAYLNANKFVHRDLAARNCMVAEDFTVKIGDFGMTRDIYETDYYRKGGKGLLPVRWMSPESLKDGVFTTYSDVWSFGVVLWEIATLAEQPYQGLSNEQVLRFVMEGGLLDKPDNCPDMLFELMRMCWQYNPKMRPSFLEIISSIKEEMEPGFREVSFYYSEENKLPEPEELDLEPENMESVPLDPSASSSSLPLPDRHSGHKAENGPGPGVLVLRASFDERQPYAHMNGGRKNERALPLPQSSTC

With “E5-polylysine/HA20-polylysine/pSV β-gal DNA”, the Percentage of β-gal positive cells, SMMC-7721 in assay [1] and in assay [2] was 60% each time.
In assay [3], “GE7-polylysine/HA20-polylysine/pSV-β-gal DNA” gave a Percentage of β-gal (+) cells, 3AO above 65%; a Percentage of β-gal (+) cells, BEL-7402 above 90%; a Percentage of β-gal (+) cells, Bcap-37 above 80%; a Percentage of β-gal (+) cells, SMMC-7721 above 80%. In assay [3], this substance gave a Percentage of β-gal (+) cells, SPC-A1 above 80% and a Percentage of β-gal (+) cells, U87 above 30%.
Regarding E5-polylysine/pSV β-gal DNA, the Percentage of β-gal positive cells, SMMC-7721 in assay [1] and in assay [2] was 10% each time.

The values above are taken from patent US6339139.
